# How the values were obtained:
# [1] = target: Recombinant, his tagged full length human frataxin protein (Abcam ab95502) (human) (UniProt Q16595); test: Simoa sandwich 3-step; capture Ab-1; frataxin 10000 pg/mL
# [2] = target: Recombinant, his tagged full length human frataxin protein (Abcam ab95502) (human) (UniProt Q16595); test: Simoa sandwich 2-step; capture Ab-2; frataxin 100 pg/mL
# [3] = target: Recombinant, his tagged full length human frataxin protein (Abcam ab95502) (human) (UniProt Q16595); test: Simoa sandwich 2-step (120 min-5 min); capture Ab-1; Diluent 1 + 5% NCS; frataxin 1.37 pg/mL
# [4] = target: Recombinant, his tagged full length human frataxin protein (Abcam ab95502) (human) (UniProt Q16595); test: Simoa sandwich 2-step (120 min-5 min); capture Ab-1; Diluent 1 + 5% NCS; frataxin 0.823 pg/mL
# [5] = target: Recombinant, his tagged full length human frataxin protein (Abcam ab95502) (human) (UniProt Q16595); test: Simoa sandwich 2-step; capture Ab-2; frataxin 2.06 pg/mL
# [6] = target: Recombinant, his tagged full length human frataxin protein (Abcam ab95502) (human) (UniProt Q16595); test: Simoa sandwich 3-step; capture Ab-5
# [7] = target: Recombinant, his tagged full length human frataxin protein (Abcam ab95502) (human) (UniProt Q16595); test: Simoa sandwich 3-step; capture Ab-4
# [8] = target: Recombinant, his tagged full length human frataxin protein (Abcam ab95502) (human) (UniProt Q16595); test: Simoa sandwich 2-step (35 min-5 min); capture Ab-1; with helper beads
# [9] = target: Recombinant, his tagged full length human frataxin protein (Abcam ab95502) (human) (UniProt Q16595); test: Simoa sandwich 2-step (120 min-5 min); capture Ab-1; Diluent 1 + 5% NCS; frataxin 0.274 pg/mL
# [10] = target: Recombinant, his tagged full length human frataxin protein (Abcam ab95502) (human) (UniProt Q16595); test: Simoa sandwich 2-step; capture Ab-1; 150 pM SβG; frataxin 0.686 pg/mL
# [11] = target: Recombinant, his tagged full length human frataxin protein (Abcam ab95502) (human) (UniProt Q16595); test: Simoa sandwich 2-step (35 min-5 min); capture Ab-1; with helper beads; frataxin 500 pg/mL
# [12] = target: Recombinant, his tagged full length human frataxin protein (Abcam ab95502) (human) (UniProt Q16595); test: Simoa sandwich 2-step (120 min-5 min); capture Ab-1; Diluent 1 + 10% NCS; frataxin 12.3 pg/mL
# [13] = target: Recombinant, his tagged full length human frataxin protein (Abcam ab95502) (human) (UniProt Q16595); test: Simoa sandwich 2-step (35 min-5 min); capture Ab-1; with helper beads; frataxin 6.17 pg/mL
# [14] = target: Recombinant, his tagged full length human frataxin protein (Abcam ab95502) (human) (UniProt Q16595); test: Simoa sandwich 2-step (35 min-5 min); capture Ab-1; with helper beads; frataxin 2.06 pg/mL
# [15] = target: Recombinant, his tagged full length human frataxin protein (Abcam ab95502) (human) (UniProt Q16595); test: Simoa sandwich 2-step (35 min-5 min); capture Ab-1; with helper beads; frataxin 55.6 pg/mL
# [16] = target: Recombinant, his tagged full length human frataxin protein (Abcam ab95502) (human) (UniProt Q16595); test: Simoa sandwich 2-step (120 min-5 min); capture Ab-1; Diluent 1 + 5% NCS
# [17] = target: Recombinant, his tagged full length human frataxin protein (Abcam ab95502) (human) (UniProt Q16595); test: Simoa sandwich 2-step (120 min-5 min); capture Ab-1; Diluent 1 + 5% NCS; frataxin 200 pg/mL
# [18] = target: Recombinant, his tagged full length human frataxin protein (Abcam ab95502) (human) (UniProt Q16595); test: Simoa sandwich 3-step; capture Ab-1; frataxin 100 pg/mL
# [19] = target: Recombinant, his tagged full length human frataxin protein (Abcam ab95502) (human) (UniProt Q16595); test: Simoa sandwich 2-step (120 min-5 min); capture Ab-1; Diluent 1 + 5% NCS; frataxin 4.12 pg/mL
# [20] = target: Recombinant, his tagged full length human frataxin protein (Abcam ab95502) (human) (UniProt Q16595); test: Simoa sandwich 2-step; capture Ab-1; 50 pM SβG
# [21] = target: Recombinant, his tagged full length human frataxin protein (Abcam ab95502) (human) (UniProt Q16595); test: Simoa sandwich 3-step; capture Ab-4; remark: listed apart in the source
# [22] = target: Recombinant, his tagged full length human frataxin protein (Abcam ab95502) (human) (UniProt Q16595); test: Simoa sandwich 2-step (120 min-5 min); capture Ab-1; Diluent 1 + 10% NCS; frataxin 4.12 pg/mL
# [23] = target: Recombinant, his tagged full length human frataxin protein (Abcam ab95502) (human) (UniProt Q16595); test: Simoa sandwich 2-step (120 min-5 min); capture Ab-1; frataxin 2000 pg/mL
# [24] = target: Recombinant, his tagged full length human frataxin protein (Abcam ab95502) (human) (UniProt Q16595); test: Simoa sandwich 2-step; capture Ab-2; frataxin 500 pg/mL
# [25] = target: Recombinant, his tagged full length human frataxin protein (Abcam ab95502) (human) (UniProt Q16595); test: Simoa sandwich 2-step; capture Ab-1; 50 pM SβG; frataxin 500 pg/mL
# Chain of UniProt Q16595 (Q16595 42-210): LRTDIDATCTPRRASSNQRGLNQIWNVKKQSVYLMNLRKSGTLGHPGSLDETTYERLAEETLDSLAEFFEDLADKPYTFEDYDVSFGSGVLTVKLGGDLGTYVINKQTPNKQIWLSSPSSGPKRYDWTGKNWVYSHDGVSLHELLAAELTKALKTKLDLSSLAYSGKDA
substance,measurement,setting,value
"Ab-3, mouse monoclonal [18A5DB1] to Frataxin (Abcam ab110328) (antibody)",Ave AEB,[1],28.5 AEB
same,S/B,[1],576
same,Ave AEB,[2],7.14 AEB
same,S/B,[2],88.6
same,Ave AEB,[3],0.02 AEB
same,S/B,[3],1.82
same,Ave AEB,[4],0.0324 AEB
same,S/B,[4],1.79
same,Ave AEB,[5],0.318 AEB
same,S/B,[5],3.33
same,LOD,[6],1.73 pg/mL
same,LOD,[7],1.3 pg/mL
same,Estimated LLOQ,[8],0.321 pg/mL
same,LOD,[8],0.117 pg/mL
same,Ave AEB,[9],0.0228 AEB
same,S/B,[9],1.26
same,Ave AEB,[10],0.0717 AEB
same,S/B,[10],1.6
same,AEB Rep1,[11],22.8 AEB
same,AEB Rep2,[11],22.7 AEB
same,Ave AEB,[11],22.8 AEB
same,S/B,[11],935
same,Ave AEB,[12],0.0631 AEB
same,S/B,[12],5.87
same,AEB Rep1,[13],0.387 AEB
same,AEB Rep2,[13],0.399 AEB
same,Ave AEB,[13],0.393 AEB
same,S/B,[13],16.1
same,AEB Rep1,[14],0.146 AEB
same,AEB Rep2,[14],0.143 AEB
same,Ave AEB,[14],0.144 AEB
same,S/B,[14],5.93
same,AEB Rep1,[15],3.47 AEB
same,AEB Rep2,[15],3.28 AEB
same,Ave AEB,[15],3.38 AEB
same,S/B,[15],139
same,LOD,[16],0.419 pg/mL
same,Ave AEB,[17],4.24 AEB
same,S/B,[17],235
same,Ave AEB,[18],2.5 AEB
same,S/B,[18],42.3
same,Ave AEB,[19],0.0434 AEB
same,S/B,[19],3.95
same,LOD,[20],0.132 pg/mL
same,LOD,[21],1.09 pg/mL
same,Ave AEB,[22],0.0283 AEB
same,S/B,[22],2.63
same,AEB rep1,[23],9.8 AEB
same,AEB rep2,[23],10.1 AEB
same,AEB rep3,[23],9.8 AEB
same,Ave AEB,[23],9.9 AEB
same,S/B,[23],1200
same,Ave AEB,[24],25.1 AEB
same,S/B,[24],263
same,Ave AEB,[25],13.7 AEB
same,S/B,[25],747

# From patent US20220308072A1
